Experimental findings from publication PMC7515180 are described below.

For this experiment, the target named is SERINC3(iHA), Serine incorporator 3 with an internal HA tag (UniProt Q13530).

“HIV-1 NL4.3 Nef I11G (from UniProt P03406 1-206) (natural protein)”: the SERINC3 internalization from the cell surface, relative to wild type NL4.3 Nef (flow cytometry, co-transfected CEM T cells) amounted to 0%.

On to “HIV-1 NL4.3 Nef S8R (from UniProt P03406 1-206) (natural protein)”, for which the SERINC3 internalization from the cell surface, relative to wild type NL4.3 Nef (flow cytometry, co-transfected CEM T cells) is 50%.
